US20110086089A1 (UNIVERSITY HEALTH NETWORK, published 2011)

Target: T1, wt.CK2-alpha-prime immobilized on GST-beads (UniProt P19784 1-350)
T1 construct: also called GST-CK2-alpha-prime; recombinant CK2-alpha-prime; not shown: N-terminal GST tag of pGEX-2lambdaT
Experiment: GST pull-down of in vitro-translated His-tagged p27 mutants on GST-CK2-alpha-prime, anti-His immunoblot

T1 sequence (P19784 whole entry): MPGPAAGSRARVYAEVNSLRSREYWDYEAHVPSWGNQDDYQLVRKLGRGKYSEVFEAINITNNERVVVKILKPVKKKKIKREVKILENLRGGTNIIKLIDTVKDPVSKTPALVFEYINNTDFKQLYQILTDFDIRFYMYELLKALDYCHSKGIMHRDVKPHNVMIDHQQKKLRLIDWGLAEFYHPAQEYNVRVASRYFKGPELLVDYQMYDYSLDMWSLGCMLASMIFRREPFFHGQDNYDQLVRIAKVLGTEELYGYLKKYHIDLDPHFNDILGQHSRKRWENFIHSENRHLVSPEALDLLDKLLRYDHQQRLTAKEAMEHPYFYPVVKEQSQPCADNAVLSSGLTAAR

binding result: no binding
B1: p27deltaC (p27.1-86), in vitro-translated His-tagged truncation mutant of p27 (other)
chain: MSNVRVSNGSPSLERMDARQADHPKPSACRNLFGPVDHEELTRDLEKHCRDMEEASQRKWNFDFQNHKPLEGKYEWQEVEKGSLPE
notes: also called p27ΔC; not shown: N-terminal His-tag of pEXP2
